Patent publication WO2009030872A1 (dated 2009)

What was measured:
[1] = biological target: E1E2 of HCV isolate H77c with E2 substitution G530A (hepatitis C virus genotype 1a, isolate …, UniProt P27958 386-729; P27958 193-382); assay: GNA capture ELISA on alanine-substituted H77c E1E2
[2] = biological target: E1E2 of HCV isolate H77c with E2 substitution W529A (hepatitis C virus genotype 1a, isolate …, UniProt P27958 386-729; P27958 193-382); assay: GNA capture ELISA on alanine-substituted H77c E1E2
[3] = biological target: E1E2 of HCV isolate H77c with E2 substitution G523A (hepatitis C virus genotype 1a, isolate …, UniProt P27958 386-729; P27958 193-382); assay: GNA capture ELISA on alanine-substituted H77c E1E2
[4] = biological target: E1E2 of HCV isolate H77c with E2 substitution D535A (hepatitis C virus genotype 1a, isolate …, UniProt P27958 386-729; P27958 193-382); assay: GNA capture ELISA on alanine-substituted H77c E1E2
[5] = biological target: T1, E1E2 of HCV genotype 1a isolate H77c (hepatitis C virus genotype 1a, strain …, UniProt P27958 386-729; P27958 193-382); assay: GNA capture ELISA on E1E2 of H77c
[6] = biological target: E1E2 of HCV genotype 2a isolate JFH-1 (hepatitis C virus genotype 2a, isolate …); assay: cell-based or functional assay
[7] = biological target: T1, E1E2 of HCV genotype 1a isolate H77c; assay: inferred from GNA capture ELISA binding curve by non-linear regression

Row | Binder | binding result [1] | binding result [2] | binding result [3] | binding result [4] | EC50 [5] [µg/mL] | IC50 of neutralization of HCVcc JFH-1 (density of E2 after western blotting) [6] [µg/mL] | Kd [7] [nM]
1 | human monoclonal antibody clone A8 (antibody, V domains shown, also called mAb A8) VH: EVQLLESGPGLVKPSGTLSLTCTVSGGSIRSSHWWSWVRQPPGKGLEWIGEVFFSGSTIYNPSLNDRVFMSVDKSKDQVSLRLSSVTAADTAVYYCARSPIKMNQGRMMLDAFDIWGQGTLVIVSS VL: AELTQSPSSLSAFVGDRVTITCRASQSISRNLNWYQQKPGTAPKVLIYAASSLQSGVPSRFSGSGSGTDFTLTITSLQPEDFATYYCQQSYTTPRTFGQGTKVEVK | no binding | no binding | no binding | no binding | 0.44 | ~0.56 | ~2.7
2 | human monoclonal antibody clone 1:7 (antibody, V domains shown, also called mAb 1:7) VH: VQLLEQSGAEVKKPGSSVKVSCQVFGDTFSRYTIQWLRQAPGQGPEWMGNIIPVYNTPNYAQKFQGRLSITADDSTSTAYMELSSLRSEDTAVYFCARVVIPNAIRHTMGYYFDYWGQGTLVTVSS VL: AELTQSPATLSLSPGERATLSCRASQSVNKYLAWYQQKPGQAPRLLIYDASNRATGIPARFSGSGSGTDFTLTISNLEPEDFAVYYCQQRSDWVTFGGGTKVEIK | no binding | no binding | no binding | no binding | 0.67 | ~0.06 | ~4.1
3 | human monoclonal antibody clone L1 (antibody, V domains shown, also called mAb L1; Ll) VH: EVQLLESGGGVVQPGRSLRLSCAASGFTFSAYGMHWVRQAPGKGLEWVAGIWFDGSNQYYSDSVKGRFTVSRDNSRNTLFLQMNSLRPEDTAVYYCATEVLFGSIKGRYYLENWGQGTLVTVSS VL: AELTQSPGTLSLSVGERATLSCRASQNIYSGYLGWYQQKPGQPPRLLIYGASNRATGIPDRFSGSGSGTDFTLTISRLESEDFAVYYCQQYGSPPYTFGQGTKVEIK |  |  |  |  | 2.31 |  | ~15
